The values below come from article PMC7337384.

The test addresses SARS-CoV-2 S-protein receptor-binding domain fused to the Fc domain of human IgG1 (SARS-CoV-2) (UniProt P0DTC2). As to the kind of experiment: SPR. A general note: Surface plasmon resonance follows binding to a sensor surface in real time, without labels.

“soluble monomeric R. macrotis ACE2 (domain or fragment)”: the Kd came out at 4.6 µM.

The Kd is the equilibrium constant for the complex coming apart.
